In the assay the target is SARS-CoV-2 stabilized S trimer (HexaPro) (SARS-CoV-2). Nature of the assay: negative-stain EM.

“SARS-CoV-2 stabilized S trimer (HexaPro) (domain or fragment)” registered a stoichiometry N of 3.

Values taken from paper PMC8642242.
